Patent US20090081226A1

Assays:
[1] = target: membrane-bound HLA-E (human); assay: flow cytometry on short term cultured melanocytes
[2] = target: membrane-bound HLA-E (human); assay: flow cytometry on a panel of 22 melanoma cell lines
[3] = target: membrane-bound HLA-E (human); assay: cell-based or functional assay
[4] = target: CD94/NKG2A receptor (human) (UniProt Q13241); assay: cell-based or functional assay
Chain of UniProt Q13241 (Q13241 other isoform, or with tags, fused parts or gaps, chain 1 of 2): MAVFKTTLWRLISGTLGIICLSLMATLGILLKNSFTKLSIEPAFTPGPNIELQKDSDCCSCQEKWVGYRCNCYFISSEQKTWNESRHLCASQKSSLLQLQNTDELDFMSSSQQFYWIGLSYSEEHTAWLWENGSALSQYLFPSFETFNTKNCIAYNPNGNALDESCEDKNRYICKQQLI
Chain of UniProt Q13241 (chain, as listed by the source, chain 2 of 2): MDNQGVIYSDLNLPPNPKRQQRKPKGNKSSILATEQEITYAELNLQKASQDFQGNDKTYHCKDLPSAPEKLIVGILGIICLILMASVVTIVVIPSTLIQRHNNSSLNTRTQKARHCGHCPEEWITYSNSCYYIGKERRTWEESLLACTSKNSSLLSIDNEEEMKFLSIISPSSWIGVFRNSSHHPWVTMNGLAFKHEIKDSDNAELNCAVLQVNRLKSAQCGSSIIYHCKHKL

**Q.** How did the ratio fluorescence intensity (RFI) (ratio (MFI test / MFI negative control)) [1] turn out when anti-HLA-E mAb MEM-E/07 (antibody) was run?
**A.** 3 to 7

**Q.** And the ratio fluorescence intensity (RFI) (ratio (MFI test / MFI negative control)) [2]?
**A.** 1 to 4

**Q.** Which NK-mediated cytotoxicity, specific lysis (51Cr release) of IFNγ-activated HAEC (% specific lysis) [3] does the source give for anti-HLA-E mAb MEM-E/06 (antibody) here?
**A.** 34.9

**Q.** For “membrane-bound HLA-E (from UniProt P61769 21-119) (peptide-MHC)”, which NK-mediated cytotoxicity, specific lysis (51Cr release) of ECs (% specific lysis) [4] is on record?
**A.** 2.6
